Assay: soluble on expression in E. coli; label from the status in PepcDB or PDB records

| Sequence | soluble on expression in E. coli |
| --- | --- |
| MTQTFADQKRKTVETAEFTEDGRYKRKVRSFVLRTGRLSEFQRNMMNDNWGTLGLDYQTEPFDFAKIYGNDNPVVLEIGFGMGKSLVDMAFANPDKNYLGIEVHTPGVGACIAYAVEKGVTNLRVICHDATEILRDSIADGALGGLQLFFPDPWHKAKHHKRRIVQPHFVTQVIQKLGENGFIHMATDWENYAEQMLEVLSANTDLVNTSKNGDYIPRPDFRPLTKFEARGYKLGHGVWDLYFVKK | not soluble |
| MTQVYDGFVHLGFSNRNGRTISHKKYQEGNSRVSADNSDANGVPYYFLINMGGGFVEGEQYQVTIDVNKDAHALVTTQTPTYVYKCEKGQLTQQNTSITLEENSYLEYMADEVIPYLKSRYFQTSRIDMDKSAHLIYSDGVTAGWSHEDLPFQYHYFRNLTQIYQDNELVYSDQTLLEPEKQDMFKLGYFEGWRNYNSLVMVSPNIDEAFVKALQKHLEGLNLESDFAISSLDISGLVLRILGKTAEDNRRIIYSCADYFRQEIHGLTPLNLRKNDMRRLEHHHHHH | soluble |
| MTRACNLYVFKNKYVSFNLLDSPNSNPKLLKISLPFNFMDEFEGLLKAVGSAPWYKLIGMVPKLQGDRVVVEMEIDRSKHLQALGTTHGGAIASVLDSAIGLNVNREVVKMGKTAVTAQLNIHYIRPVTEGKIVGVGMPMHIGSKVTVGYGEVRNEEGELVAAGTATFYIIDRRFRDLEHHHHHH | not soluble |
| MTRLPDIKKEVRFNAPIEKVWEAVSTSEGLAFWFMENDLKAETGHHFHLQSPFGPSPCQVTDVERPIKLSFTWDTDGWSVTFHLKEEENGTIFTIVHSGWKQGDTKVEKAGAESAVVHERMDRGWHDLVNERLRQIVELEHHHHHH | soluble |
| MTRPNDEGDVSSLAYKYETIADSLRQDIKSGKYTPGELMPDQNKLAETFDTTRITIHKAIQLLIIEGMVYSKRGAGTFVRKDFGLTERRQETLVDKPLGTTQTNAGKKVTSKVLELQARLPTKREAEQLLIDEMDPVYVIRRTRYVDGKVWAYEHTIMPTSIVTLTKQVLEGSVYGYLEQHSGKKIAGSHRIISAARVTADDVAAMGATLNDPVLVINQISYMDDGQPFEVSESHFPYETSTVVADVQIH | not soluble |
| MTRQFLEFEQPIEELNQKIEALRMVGSDNEVNLSEEIARLEAKCSELTENIFSRLEPWQIAQMARHPLRPQTTDYIERIFTDFQELHGDRSYSSAPAIIGGMARLNGEPVMVLGHQKGKRTKEKVYRNFGMARPEEYRKALRLMRMAEKFKMPVVTFIDTAGAYPGIGAEERNQSEAIARNLFAMSRIKTPIVCIVTGEAGSGGALAIGVGDKIIMLQFSIYSVISPEGCASILWKDASKASEAARAMGITADRIFENELVDMVVPEPLGGAHRDVDEMASRLKRLLTSELQALKKVPLDQLIELRYQKFMAMGACD | not soluble |
| MTRQMILAVGQQGPIARAETREQVVGRLLDMLTNAASRGVNFIVFPELALTTFFPRWHFTDEAELDSFYETEMPGPVVRPLFETAAELGIGFNLGYAELVVEGGVKRRFNTSILVDKSGKIVGKYRKIHLPGHKEYEAYRPFQHLEKRYFEPGDLGFPVYDVDAAKMGMFICNDRRWPETWRVMGLKGAEIICGGYNTPTHNPPVPQHDHLTSFHHLLSMQAGSYQNGAWSAAAGKVGMEEGCMLLGHSCIVAPTGEIVALTTTLEDEVITAALDLDRCRELREHIFNFKAHRQPQHYGLICEF | soluble |
| MTRTNYQKKRMTCPVETEDITYRRKKIKGRRQAILAQFEPELVHHELIGDSCTCPDCHGTLTEIGSVVQRQELVFIPAQLKRINHVQHAYKCQTCSDNSLSDKIIKAPVPKAPLAHSLGSASIIAHTVHQKFTLKVPNYRQEEDWNKLGLSISRKEIANWHIKSSQYYFEPLYDLLRDILLSQEVIHADETSYRVLESDTQLTYYWTFLSGKHEKKGITLYHHDKRRSGLVTQEVLGDYSGYVHCDMHGAYRQLEHAKLVGCWAHVRRKFFEATPKQADKTSLGRKGLVYCDKLFALEAEWCELPPQERLVKRKEILTPLMTTFFDWCREQVVLSGSKLGLAIAYSLKHERTFRTVLEDGHIVLSNNMAERAIKSLVMGRKNWLFSQSFEGAKAAAIIMSLLETAKRHGLNSEKYISYLLDRLPNEETLAKREVLEAYLPWAKKVQTNCQ | not soluble |
| MTSGSLQFTVLRAVNPATDAQRESMLREPGFGKYHTDHMVSIDYAEGRGWHNARVIPYGPIELDPSAIVLHYAQEVFEGLKAYRWADGSIVSFRADANAARLRSSARRLAIPELPDAVFIESLRQLIAVDKAWVPGAGGEEALYLRPFIFATEPGLGVRPATQYRYLLIASPAGAYFKGGIAPVSVWVSTEYVRACPGGTGAAKFGGNYAASLLAQAEAAENGCDQVVWLDAVERRYIEEMGGMNIFFVLGSGGSARLVTPELSGSLLPGITRDSLLQLAIDAGFAVEERRIDIDEWQKKAAAGEITEVFACGTAAVITPVARVRHGASEFRIADGQPGEVTMALRDTLTGIQRGTFADTHGWMARLG | soluble |
| MTSIHSPVTRKEDTELKRPDLRGKFVCSSCSQNFQHSASLNRHRQLMHSNEHTCMMCERALNQKETIREHMRNEHNLAQVFTCGCCNWTFASKRQLTEHTKCIQGTGAPGDTIPIAKSINAPGSLIQSTIQGTPPVVKTGRKRPMGGSLSPSSSVSTSISSRDASGSPPPTEEEAERKVLFDNAVDTILQSKFFTYQQITEVDTWVKIIESANTLADTLQRIKKSQKVKAEGPAVESKMIPEKHVKQEIE | not soluble |
| MTSITAIFFDLDGTLVDSSIGIHNAFTYTFKELGVPSPDAKTIRGFMGPPLESSFATCLSKDQISEAVQIYRSYYKAKGIYEAQLFPQIIDLLEELSSSYPLYITTTKDTSTAQDMAKNLEIHHFFDGIYGSSPEAPHKADVIHQALQTHQLAPEQAIIIGDTKFDMLGARETGIQKLAITWGFGEQADLLNYQPDYIAHKPLEVLAYFQ | soluble |
| MTSKQSVSQCVKPPRPPAWIMQPPPDWQTPLNGIISPSERGLEHHHHHH | not soluble |
| MTSRGITSLSNHLIPLSFPARLRIDQADKQAQAGLMKDHAQHTANIGKFQDSFVTADGQARASVPLSRPETLWFNTGTLCNIECANCYILSSPKNDALVYLSADEVSAYLDQIAARGWPVHEIGFTGGEPFMNPQIIAMSRTALERGFEVLILTNAMRPMMRKTMRLGVAALVRDFGDRLTLRVSVDHHSAACHDAERGAGSFARTLAGMVWLRDCGARMTVAGRTVWGESEAEARAGYAALYAEYGFAIDAFDPGQTVLFPEMDERVEVPEITTACWDILGKSPETVMCASSRMVVKRKGAAHPVVLACTLLPYAPEFELGQTLAEAERPVQLNHPHCAKFCVLGGASCSA | not soluble |
| MTSSPARNGDISFWYADIGGVPQPRPPLAGDARADVCIVGAGYTGLWTALYLKEQAPELEVLVLEKEFAGFGASGRNGGWLTGSFAWTHDRYLSTGTAEGVRAMVTAMSGTVDEVIRVAEAEGIDADIHRTDELMVAVTPAQRARAEAEVRHRQSWGEERVSFLEADAVARRIRIPKAEGAMVVGGVARVQPAKLVRGLAEAAERRGVRIAEGTEVLGIAPGRVETRRGTVQAPIILRATEGFTATLPGAKRDWLPLNSAQIVTEPLPPEIWDRIGWEGAEILGDMANAYCYCQRTREGRIAVGARGRAYRMASRIDERGEADAVTVAHLLKRLQRHFPAAADARIDHSWCGVLGVPRDWCATVGLDPTTGIGWAGGYVGVGVSTSNLAGRTLADLALKRDTALTRLPWVNRRVRRWEPEPLRWLGVRGMYRLLEAADRREEAGGPPSWLAALGHRIAGRLEHHHHHH | not soluble |
| MTSTTPLEPERWTPHATVATIVEKDGKFLLVEEKRLINSQGDFGIVYNQPAGHVDEGESIMAAAIRETLEETRWQVKLKHLVGIYIFTAPANNVTYHRYCFAAEATVHQAESQLDDGILDAKWLSWEEIQQLDNLRSPLVKRCIKDHIDGKHYPLDVIYEYADHEHTDDENKSQELEDRND | soluble |
| MTSWADIQKLASDLQRVQLSQSSKKLSEVNCIEVLQKLIASHRIDVVYTRDGHSYVTKNHLETEIKNECIAAGGRASLTDIAVALNIDFDHIEKTSRLIVSTDDEFTISNAEIFATEYVHRLRNELRTLLDEQGNQTTAALCKHWNLSSELLQSLLIEKLGSSDFQGVVDGDTIYTSSFLNARQLVLRAILIALTKITPISTIQKRVGLTPKRFWIAFENLQSLGEIPGTLIGSRTSPSCSYRPMMYDHLVKSCVLNQYRQNEFLEISTLKTLGVDAKPALEEVLGSSEFKKLVSMRSMFMTKELMDQCINAVQEDLQKSGISDVHLALQSLNLPLDTADEDEIGSKVANVEKDSHFAEGFVFKGAVLTEALRSIDKLLDVRAHEEVDRLEAEKKKQGGAKAAVKVQEETDDWGDGKKGGKGGKKNAKSVKGGSKSSAPSTSSNLSANISINSEELEIWLRESQSVPEEILSVIVEKLNQETTTLLRKKVQDIQAHQLVASVANSKKSLSAIGDKCRQLYDSFNTFETATSTFADPLGSDLRQYLLKTVGNEIALALLSYVMGVDNAHQLKEKQREETIENLPEMLRDPIRSVFASLKSTDDDALDKFHDAVYNCSAPSATSLALKKVDKKGRAEVGAKITAELHEQLCSQTEPATTLLLSVLYILAKAGRPTTASGKFVSQLVAQIKDLCPENVFDLLQACQKGVVTCIKNKGDEVAKEMLVNDISSLKQSIMP | not soluble |
| MTTAITPDKKKLVSPKPTKTTSDKSKTKPRRSSKTSKKRKSKKGLFGCCAKKRKTKRSKKSAKRTKRSAPKKAPKKAPMKAPSKPAAKLVPQQAQASLQKPIQSGIVDADATVKTVVPRPPTPIPPTGVKPEPAPRSEPLYQPRSVSSTTPRTSATTGTTEQMVTAPATLPPPSAESKHLPQDPPGDASSPRVQRQYTAEKYSKEDQDDDDQKDLRKSVAYPSHKFFMTQYVKDECRVRRWVYEDSVPLMMESNMKHMLRMASNRIAACQSDKARRCDMMKDLNEMTEILDGNF | not soluble |
| MTTARWVIDKHLQNFHILCKFAGILKTNSFISVEDKAKLSEKLEKLDLYHRRNTGKSLDATTHKIKELSFYMFGYRDVCGQVTQKFLFSPLGNLFLKHLDNNEYIQKIFLTMLWAIPFPHPYIKTDESIQLYPMRLIFKLLSDERLDCKLFSYEYIYLISFVKSADQNSYEKLVQDILVLRTCAEVKIKHQLTAENSRSHAYVNAAHEWESYFSKTLTDAGVLQKTDGKIICRLKHGKTETYRKVTSSEFSIPKQLQEFVKKLQSAYSFSEMPLNLNDSDRLKIDVIKEIYSFYPKELLEEIGELKDEAAYELLHLPRLIEQYADNNNGTEAYLFEDVLEMGFNMFYNVEAKKIGGPGNTDLECLYITQKRKFAVEAKSTKNKLSGINSGRLEDHKNKIKAIYTIVVTPRYVPAVLSDIRNCPIVIIRANTFAEFLYNCLINRSSIPEIDYRYFDEIIIKNLGKDISSEISNLTMQQFASNTTMEAYST | not soluble |
| MTTDLITVKQVTKTYGSKNKEIAALKDISLAIPKGTTLGIIGESGSGKTTLGKLIAGIESPTSGEIDYNGQVVHKLKAAHKRDFLQKVQFIFQDSTAALNPRWKVRDSVTEGYISFGLGDKGLKDKVAGDALERVGLDRRYINRYPHEFSGGQRQRIAIARALLCEPEVLILDEPISALDVSLQIQIVHLLQKIQREQGYTYLFIAHDLPMVHYLCEKVAVLYKGELVEFGNTDEVFRNPQHSYTKTLLASTPKISG | not soluble |
| MTTFIQLHLLTAYPAANLNRDDTGAPKTVVLGGATRLRISSQSLKRAWRTSELFEQALAGHIGIRTGRIAREAAQILVDSGIDAKKAVEYVKNIANCFGKVKEDKKPKDELTNAETEQLVHISPAEFEAVKALARRLAEEKRPATEEEAELLRHDRMAVDIAMFGRMLAKKTDFNVEAACQVAHAFGVSETIIEDDFFTAVDDLRQASAEDAGAGHLGETGFGSALFYTYICIDKDLLVKNLNDNEELANKTLRAFTEAALKVSPTGKQNSFASRAYASWALAEKGTDQPRSLAAAFYEPINGTDQLNVAVKRITSLHKNMNKVYGQRTDTASFDVMNQQGSMEDVLDFICA | not soluble |

— the DeepSol protein solubility set
